Source: the supplement of paper PMC11502859

tested on: HEK293T; experiment: median enrichment of reporter reads in eGFP-reduced (low/intermediate) vs eGFP-high sorted cells (eGFP-extension fusion abundance) (ratio); higher = stronger loss of eGFP-fusion protein abundance (more destabilising extension)
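Also: lentiviral eGFP-IRES-mCherry reporter pool sorted by FACS 96 h post-transduction, gated on mCherry-high cells, Illumina read counts normalized per million, median across four biological replicates.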

Going from “EVGVRSPYSACCPGCAAQLDSASQHLPPRSFLLFIPIFTPKTSLSLFTPPKPLSHAGPLKPQLPTILREHPLPSLPFPALKPA [GSTM2]” to “YDGAVTERTQESGTPPGIPSTFSCSWERPGGGAHWEGQDSVPALILPCPDVSCFAQRSFLSTPLIPRLVPREGWRPGHGPSRR [ASIC4]”, the median enrichment falls from 5.73 to 4.69.

Going from KSFPLTLLQIGL [PTHLH] to YRNLENYTCFSEIITEYT [ABCD3], the median enrichment falls from 19.8 to 11.4.

First: CSLHLGGGSLGKSTQTCTTVQQQGSLLPAVPPPPVYTT [SEZ6]
Second: LWRWWPRGGLLGGVGDKTGQTTGPPKTVKG [HS6ST1]
The median enrichment of the first is higher: 19.3 for the first, 11.4 for the second.

Going from “CCSSVKEQQTWHWNRVENPGFCTWRGKMPSCFLINPNFIYSSGTLWG [OPALIN]” to EGGALCLCLPV [CTSE], the median enrichment rises from 5.49 to 7.51.

First: LYKKKYCPYQKQILLCTF [RHOT1]
Second: REAWPR [ELOVL1]
The median enrichment of the first is higher: 9.77 for the first, 0.427 for the second.

First: WWWW [Trp04]
Second: SVWGLAPCSPGPHCSHTLRLGPPSLLWC [TOM1]
The median enrichment of the first is lower: 7.39 for the first, 8.98 for the second.

Going from “CGPDCSLHSAHSICSHPPSLTQPPLSGILPQMRSERQ [ABHD6]” to “CEQQMELWERGEQWGYRESSSALPLGQPHLPAVSPGHFSTSQVEVLQGPAATCIRRTSFSA [SPATA19]”, the median enrichment rises from 0.625 to 2.8.

First: KKKLSHREKNI [OGA]
Second: KDS [RPAP1]
The median enrichment of the first is higher: 0.598 for the first, 0.532 for the second.

Compared with “CGLLPLGPLTLSGWWTTKYNPVYNLKIYFTFVLLYLFIKG [SMAD4]”, YVDLRQTLGGVKESHRYPKE [MAGEH1] is higher in median enrichment: 2.65 for the first, 3.34 for the second.

First: WLYLRFEAGKPDR [UGT2B10]
Second: LTYFNYCIFISSFPNTNKIIL [DYNC2LI1]
The median enrichment of the first is lower: 6.76 for the first, 8.97 for the second.

Compared with YKLLKRFICVLLTRFFLFVACFGN [SKIL], QQQQQQ [Gln06] is lower in median enrichment: 9.42 for the first, 0.198 for the second.

First: SKGQLPGKTRF [PHLDA1]
Second: CLHW [RIMKLB]
The median enrichment of the first is lower: 1.67 for the first, 3.73 for the second.

First: EAKSRCTQHVLGMQPQEVPDLKQPDSYLA [GREM1]
Second: GLKFCKVLRGPEHVSATRGSGQHCVLRLVSYLRLPSICVQRPRLQPSQHSAGSHAPCPHPGQQTPARVCAPSDCTPALITHRH [SLC29A4]
The median enrichment of the first is lower: 0.305 for the first, 5.42 for the second.

Compared with ERAPTGRWGRRG [Degron KLHDC3], SEPSHSLSPLPCLPHLPPTTRA [RAB3A] is lower in median enrichment: 5.05 for the first, 0.136 for the second.

Going from “IYPSPGSPGHSVLSKTRMWYQLWKRKVSCQQYLLPSRQPSQVRHLLRSHREPGVCTSWKSCHQPGHSSHRIDQRACFLIQENE [SPSB4]” to LETIMKKRVHISISKS [CTLA4], the median enrichment rises from 7.01 to 37.7.

First: WKTCSLSILPMKIHFTHPPPLLFCHVFPSLCIARFEVTDTHPKPCCSQSPILHILMGK [SYNJ2BP]
Second: YPCTISPSSFLGQPGPALVCGDWRDQERVWRPPEGCCLPGLQ [MLST8]
The median enrichment of the first is higher: 7.06 for the first, 5.76 for the second.

Going from YSWANDH [SEMA4F] to RGLRRGLTEP [SLC22A6], the median enrichment falls from 0.76 to 0.442.

Going from YKL [OR6C2] to EYKLS [UBA6], the median enrichment falls from 0.678 to 0.363.

First: SAASWPWGRGLGCGAVWVLSSSPLPRPSLSNPAWDLGFNAEAMSLSGPASGYSHPGTEKAADGDCLPQPQQHLGLQLLESYHP [LGALS9]
Second: QSQEPSSLI [CNDP1]
The median enrichment of the first is higher: 7.86 for the first, 0.195 for the second.

First: WRQRGGKETWLSLIICIQITVL [ATXN1]
Second: KIFFSPIFLPASGDTAAVTREASLGGPDAQGESWSGESMSCDTTAGAICSPAFLSVGEGISEFILYPRLAFTKFKSLSMRPRP [PGPEP1]
The median enrichment of the first is lower: 8.6 for the first, 11.5 for the second.

Going from FFFFFFFFF [Phe09] to YTLGKITYLSSCE [OR10G8], the median enrichment rises from 9.48 to 13.7.

Going from YDHPTTRSAANSGLSLGVAPSLLLPLN [TRIB3] to YSQLKECEILNY [MTREX], the median enrichment falls from 6.29 to 1.31.

Compared with SYKSIVSDWTITSFNNVSNNVLY [FAM135A], SGEMCVTINSKMGKPPSPCI [AK3] is lower in median enrichment: 30.6 for the first, 0.494 for the second.

Work on “HLPIPASLARALLGPEQRRTCPTHTAIYSSRHRAPLPYSWSQQPGNGVALHWPLASTLSGAPAVGWGTPAKDQFGCLIPGAVT [CRHR2]” yielded a median enrichment of 3.84.
